Assays:
Canine pharmacokinetics = details: dogs
From the text: Canine pharmacokinetics and toxicities. […] All procedures and protocols involving care, handling, and dosing for this study were reviewed and approved by the Institutional Animal Care and Use Committee (IACUC) at North Carolina State University College of Veterinary Medicine, which is an AAALAC-accredited facility. The animals' health status were monitored daily by the animal technicians and veterinary staff, paying particular attention for signs of gastrointestinal toxicities including vomiting, diarrhea, lethargy, and inappetence. If noted, supportive care was provided. […] 2 mL blood samples were drawn from jugular vein at 40 s, 15 and 30 min, 2, 4, 8, 24, 48, and 72 h after injection, diluted into 400 μL heparinized PBS (1000 UmL^−1). Sample processing and analysis were performed as with murine pharmacokinetics studies.

[1] = molecular target: mouse serum albumin (MSA) (Mus musculus, UniProt P07724); test: Isothermal titration calorimetry (VP-ITC) of polypeptide carriers and DOX micelles with mouse albumin; format: binding; details: PBS pH 7.4, 37° C.
Sequence of mouse serum albumin (MSA) (P07724 25-608): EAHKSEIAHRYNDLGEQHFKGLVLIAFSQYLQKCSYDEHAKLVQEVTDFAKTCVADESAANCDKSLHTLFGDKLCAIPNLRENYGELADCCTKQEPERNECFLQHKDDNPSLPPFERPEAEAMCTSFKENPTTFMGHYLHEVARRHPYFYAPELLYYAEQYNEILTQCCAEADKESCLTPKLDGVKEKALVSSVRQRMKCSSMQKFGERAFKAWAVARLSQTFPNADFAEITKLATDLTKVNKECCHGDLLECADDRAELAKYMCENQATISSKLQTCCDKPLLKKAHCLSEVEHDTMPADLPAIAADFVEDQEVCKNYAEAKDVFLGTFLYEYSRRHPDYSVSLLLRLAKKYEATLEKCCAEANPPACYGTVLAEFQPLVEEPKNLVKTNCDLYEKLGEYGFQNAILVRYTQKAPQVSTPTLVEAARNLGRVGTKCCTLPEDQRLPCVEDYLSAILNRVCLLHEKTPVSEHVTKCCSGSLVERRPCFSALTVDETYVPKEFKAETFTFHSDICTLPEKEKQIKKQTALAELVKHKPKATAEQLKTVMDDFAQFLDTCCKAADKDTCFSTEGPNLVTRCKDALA
Description: Interaction with albumin. Interaction of CP monomers and micelles with human and mouse albumin was analyzed by isothermal titration calorimetry (ITC).

[2] = tested on: C26 murine colon adenocarcinoma cells
Description: C26 murine colon adenocarcinoma cells were seeded (5000 cells/well) in a 96-well plate. After 24 h, cells were treated in triplicate with 3-fold serial dilutions of drugs beginning with 100 uM. After 72 h incubation, 20 μL of CellTiter 96 AQueous™ (Promega; Madison, WI) 3-(4,5-dimethlthiazol-2-yl)-5-(3-carboxymethoxphenyl)-2-(4-sulfophenyl)-2H-tetrazolium (MTS) reagent was added to each well followed by 3 h incubation at 37° C. The absorbance at 490 nm was determined using a Victor3™ microplate reader (Perkin Elmer; Waltham, MA). For each plate, blank wells (with no cells) were defined as 0% viability and wells treated with PBS were defined as 100% viability. The background absorbance at 490 nm was corrected by subtracting the average absorbance of the blank wells from each well. The percent viability was defined as the absorbance of each well normalized to the absorbance of wells treated with PBS. Inhibitory concentration (IC 50) values were calculated using a four-parameter logistic fit in the Prism program (GraphPad Software, San Diego, CA, USA).

[3] = Pharmacokinetics of CP-DOX and ABDN-CP-DOX micelles in mice; format: in vivo; details: Balb/C mice; for Apparent distribution volume VD / Distribution half-life β t1/2 / Elimination rate constant kg / Plasma clearance CL / Plasma to tissue rate constant kpt / Tissue to plasma rate constant ktp / Area under the curve AUC / Elimination half-life α t1/2: tail vein; for Area under the curve AUC / Elimination half-life α t1/2: plasma DOX
Description: The isopropanol extract was then centrifuged (14,000 RPM, 10 min, 4° C.) and 125 uL of the supernatant was loaded onto a black 96-well plate (BD Biosciences) in duplicate.

[4] = cephalic vein, 27 DOX Equiv/m^−2 BSA or 0.9 mg DOX Equiv/kg BW
[5] = printed 'at the dose of 10 mg/kg BW DOX equivalent' (first statement of b160)

B1: ABDN-CP-DOX (conjugate)
chain: LAEAKVLANRELDKYGVSDYYKNLINNAKTVEGVKALIDEILAALPVPGAGVPGAGVPGAGVPGAGVPGAGVPGAGVPGAGVPGAGVPGAGVPGAGVPGAGVPGAGVPGAGVPGAGVPGAGVPGAGVPGAGVPGAGVPGAGVPGAGVPGAGVPGAGVPGAGVPGAGVPGAGVPGAGVPGAGVPGAGVPGAGVPGAGVPGAGVPGAGVPGAGVPGAGVPGAGVPGAGVPGAGVPGAGVPGAGVPGAGVPGAGVPGAGVPGAGVPGAGVPGAGVPGAGVPGAGVPGAGVPGAGVPGAGVPGAGVPGAGVPGAGVPGAGVPGAGVPGAGVPGAGVPGAGVPGAGVPGAGVPGAGVPGAGVPGAGVPGAGVPGAGVPGAGVPGAGVPGAGVPGAGVPGAGVPGAGVPGAGVPGAGVPGAGVPGAGVPGAGVPGAGVPGAGVPGAGVPGAGVPGAGVPGAGVPGAGVPGAGVPGAGVPGAGVPGAGVPGAGVPGAGVPGAGVPGAGVPGAGVPGAGVPGAGVPGAGVPGAGVPGAGVPGAGVPGAGVPGAGVPGAGVPGAGVPGAGVPGAGVPGAGVPGAGVPGAGVPGAGVPGAGVPGAGVPGAGVPGAGVPGAGVPGAGVPGAGVPGAGVPGAGVPGAGVPGAGVPGAGVPGAGVPGAGVPGAGVPGAGVPGAGVPGAGVPGAGVPGAGVPGAGVPGAGVPGAGVPGAGVPGAGVPGAGVPGAGVPGAGVPGAGVPGAGVPGAGVPGAGVPGAGVPGAGVPGAGCGGCGGCGGCGGCGGCGGCGGCGG
Canine pharmacokinetics
  AUC, fold larger than that of CP-DOX: six-fold
  plasma half-life, fold greater than that of CP-DOX: three-fold
Canine pharmacokinetics; [4]
  Apparent distribution volume VD: 0.02 ± 0.00 mL/g
  Distribution half-life β t1/2: 1.705 ± 0.822 h
  Elimination rate constant kg: 0.02 ± 0.00 h⁻¹
  Plasma clearance CL: 0.0003 ± 0.0000 mL/h/g
  Plasma to tissue rate constant kpt: 0.06 ± 0.03 h⁻¹
  Tissue to plasma rate constant ktp: 0.34 ± 0.17 h⁻¹
Canine pharmacokinetics; cephalic vein, 27 DOX Equiv/m^−2 BSA or 0.9 mg DOX Equiv/kg BW, plasma DOX
  Elimination half-life α t1/2: 30.8 ± 2.0 h
[1]
  binding stoichiometry N: 1.01±0.00
[2]
  IC50: 310 nM
[3]; 10 mg/kg BW DOX equivalent
  Apparent distribution volume VD: 0.34 ± 0.01 mL/g
  Distribution half-life β t1/2: 0.207 ± 0.0233 h
  Elimination rate constant kg: 0.10 ± 0.01 h⁻¹
  Plasma clearance CL: 0.013 ± 0.000 mL/h/g
  Plasma to tissue rate constant kpt: 2.08 ± 0.27 h⁻¹
  Tissue to plasma rate constant ktp: 1.22 ± 0.13 h⁻¹
  Area under the curve AUC: 1400.4 ± 34.2 µM·h
  Elimination half-life α t1/2: 18.3 ± 0.6 h
[3]; 20 mg/kg BW DOX equivalent
  Apparent distribution volume VD: 0.25 ± 0.11 mL/g
  Distribution half-life β t1/2: 1.2 ± 0.292 h
  Elimination rate constant kg: 0.08 ± 0.00 h⁻¹
  Plasma clearance CL: 0.011 ± 0.000 mL/h/g
  Plasma to tissue rate constant kpt: 0.25 ± 0.07 h⁻¹
  Tissue to plasma rate constant ktp: 0.29 ± 0.07 h⁻¹
  Area under the curve AUC: 3328.5 ± 100.3 µM·h
  Elimination half-life α t1/2: 17.5 ± 0.8 h
[3]; 10 vs 20 mg/kg BW DOX equivalent
  linearity of pharmacokinetics (in words): linear pharmacokinetics
[3]; [5]
  bioavailability i.e. AUC: 3328.5 ± 100.3 µM·h
  half-life: 17.5 ± 0.8 h

Reference: US12594347B2, “Nanoparticulate drug delivery systems” (Duke University, priority 2018, dated 2026)
